These results are taken from PMC5755487, “Combining Chemical Cross-linking and Mass Spectrometry of Intact Protein Complexes to Study the Architecture of Multi-subunit Protein Assemblies” (Journal of Visualized Experiments : JoVE, 2017).

B2: large subunit of carbamoyl phosphate synthase (CPS) from Escherichia coli (enzyme)
chain: MPKRTDIKSILILGAGPIVIGQACEFDYSGAQACKALREEGYRVILVNSNPATIMTDPEMADATYIEPIHWEVVRKIIEKERPDAVLPTMGGQTALNCALELERQGVLEEFGVTMIGATADAIDKAEDRRRFDVAMKKIGLETARSGIAHTMEEALAVAADVGFPCIIRPSFTMGGSGGGIAYNREEFEEICARGLDLSPTKELLIDESLIGWKEYEMEVVRDKNDNCIIVCSIENFDAMGIHTGDSITVAPAQTLTDKEYQIMRNASMAVLREIGVETGGSNVQFAVNPKNGRLIVIEMNPRVSRSSALASKATGFPIAKVAAKLAVGYTLDELMNDITGGRTPASFEPSIDYVVTKIPRFNFEKFAGANDRLTTQMKSVGEVMAIGRTQQESLQKALRGLEVGATGFDPKVSLDDPEALTKIRRELKDAGADRIWYIADAFRAGLSVDGVFNLTNIDRWFLVQIEELVRLEEKVAEVGITGLNADFLRQLKRKGFADARLAKLAGVREAEIRKLRDQYDLHPVYKRVDTCAAEFATDTAYMYSTYEEECEANPSTDREKIMVLGGGPNRIGQGIEFDYCCVHASLALREDGYETIMVNCNPETVSTDYDTSDRLYFEPVTLEDVLEIVRIEKPKGVIVQYGGQTPLKLARALEAAGVPVIGTSPDAIDRAEDRERFQHAVERLKLKQPANATVTAIEMAVEKAKEIGYPLVVRPSYVLGGRAMEIVYDEADLRRYFQTAVSVSNDAPVLLDHFLDDAVEVDVDAICDGEMVLIGGIMEHIEQAGVHSGDSACSLPAYTLSQEIQDVMRQQVQKLAFELQVRGLMNVQFAVKNNEVYLIEVNPRAARTVPFVSKATGVPLAKVAARVMAGKSLAEQGVTKEVIPPYYSVKEVVLPFNKFPGVDPLLGPEMRSTGEVMGVGRTFAEAFAKAQLGSNSTMKKHGRALLSVREGDKERVVDLAAKLLKQGFELDATHGTAIVLGEAGINPRLVNKVHEGRPHIQDRIKNGEYTYIINTTSGRRAIEDSRVIRRSALQYKVHYDTTLNGGFATAMALNADATEKVISVQEMHAQIK
notes: carbamoyl phosphate synthase large subunit, Escherichia coli; also called large CPS subunit

The target in data set [1] is RvB2 subunit of the RvB1/B2 complex from Chaetomium thermophilum (Chaetomium thermophilum). Description: native MS; purified complex exchanged into 200 mM ammonium acetate, nano-electrospray, Q-ToF instrument; intact complexes and sub-complexes.
In data set [2] the target is B2. The data set is described as above. The following applies: both partners purified.
Data set [3] concerns the molecule itself. Description: cross-linking; purified complex with BS3 (0.5-5 mM titrated), 25 °C, 1 h; SDS-PAGE, in-gel trypsin digestion, LC-MS/MS, pLink search.

Several values for one entry are separate records, joined by “and”; a condition that tells them apart may be missing. Equal values may be shown once.

In data set [1], “RvB1 subunit of the RvB1/B2 complex from Chaetomium thermophilum (natural protein)” displayed a stoichiometry N (RvB1 per RvB2 (3:3)) of 1 and a stoichiometry N (RvB1 per RvB2 (6:6)) of 1.

B1: small subunit of carbamoyl phosphate synthase (CPS) from Escherichia coli (enzyme)
chain: MIKSALLVLEDGTQFHGRAIGATGSAVGEVVFNTSMTGYQEILTDPSYSRQIVTLTYPHIGNVGTNDADEESSQVHAQGLVIRDLPLIASNFRNTEDLSSYLKRHNIVAIADIDTRKLTRLLREKGAQNGCIIAGDNPDAALALEKARAFPGLNGMDLAKEVTTAEAYSWTQGSWTLTGGLPEAKKEDELPFHVVAYDFGAKRNILRMLVDRGCRLTIVPAQTSAEDVLKMNPDGIFLSNGPGDPAPCDYAITAIQKFLETDIPVFGICLGHQLLALASGAKTVKMKFGHHGGNHPVKDVEKNVVMITAQNHGFAVDEATLPANLRVTHKSLFDGTLQGIHRTDKPAFSFQGHPEASPGPHDAAPLFDHFIELIEQYRKTAK
notes: carbamoyl phosphate synthase small subunit, Escherichia coli; also called small CPS subunit
In the case of B1, the stoichiometry N – broadly, the number of molecules, sites or subunits per partner or assembly – in data set [2] is 1 small per large subunit (1:1) and 1 small per large subunit (2:2).

As to B2, the binding result in data set [3] was “binds”.
